Data set [1] has as its system newly diagnosed glioblastoma. The data set is described as follows: AVAglio Phase III trial, efficacy (PFS, ORR, pseudoprogression, steroid discontinuation). Format: in vivo, human. From the text:
(§1) A randomized, double blind, placebo controlled multicenter Phase III trial of bevacizumab, temozolomide and radiotherapy, followed by bevacizumab and temozolomide versus placebo, temozolomide and radiotherapy followed by placebo and temozolomide in patients with newly diagnosed glioblastoma (AVAglio)
(§2) The AVAglio trial evaluated the efficacy and safety of bevacizumab in combination temozolomide and radiotherapy for newly diagnosed glioblastoma. This study was designed as a prospective, randomized, double blind, placebo controlled Phase III evaluation of bevacizumab plus chemotherapy versus chemotherapy alone. To be eligible, patients must have newly diagnosed glioblastoma with a tissue diagnosis that has been established following either a surgical resection or biopsy. By adding bevacizumab to chemotherapy and radiotherapy, the AVAglio trial aimed to improve overall survival (OS) and progression-free survival (PFS) for this group of patients who have limited therapeutic options and face a particularly poor prognosis. The primary objective was to compare OS and PFS of patients randomised to temozolomide and radiotherapy only or to temozolomide and radiotherapy plus bevacizumab.
(§3) Study Design—This trial consisted of three phases (Concurrent, Maintenance, and Monotherapy) and two (2) treatment arms: temozolomide and radiotherapy (Arm 1) and temozolomide and radiotherapy plus bevacizumab (Arm 2). Patients were randomly assigned (1:1) to either arm, see FIG. 1.
(§4) Eligible patients received 2 Gy radiotherapy 5 days a week for 6 weeks and 75 mg/m^2 temozolomide (TMZ) orally daily for 6 weeks from the first day to the last day of radiotherapy. After a 4 week treatment break, eligible patients received 6 cycles of 150-200 mg/m^2 TMZ on days 1-5 of a every 4 weeks schedule in combination with 10 mg/kg placebo IV every 2 weeks. TMZ was administered orally starting with a 150 mg/m^2 dose that could be escalated. Placebo monotherapy (15 mg/kg every 3 weeks) was then continued until disease progression.
(§5) Eligible patients received 2 Gy radiotherapy 5 days a week for 6 weeks and 75 mg/m^2 TMZ orally daily for 6 weeks from the first day to the last day of radiotherapy in combination with 10 mg/kg bevacizumab IV every 2 weeks. After a 4 week treatment break, eligible patients received 6 cycles of 150-200 mg/m^2 TMZ on days 1-5 of a every 4 weeks schedule in combination with 10 mg/kg bevacizumab IV every 2 weeks. TMZ was administered orally starting with a 150 mg/m^2 dose that could be escalated. Bevacizumab monotherapy (15 mg/kg every 3 weeks) was then continued until disease progression.
(§6) The initial bevacizumab infusion was over 90 minutes, with subsequent infusions over 60 minutes and then 30 minutes, as tolerated. Bevacizumab was administered on the day of the last day of radiotherapy and TMZ, i.e., the day before the start of the TMZ treatment break.
Analyses of PFS was based on tumor assessments MacDonald Response Criteria (modified WHO criteria) using MRI of the brain and a neurological evaluation as described in Macdonald et al., Response criteria for phase II studies of supratentorial malignant glioma. J Clin Oncol 1990; 8:1277-80.
Tumor assessments were performed at baseline, at the end of the 4 week treatment break, then then every 8 weeks.
Patients≥18 years of age and with newly diagnosed supratentorial Glioblastoma (GBM) with a tissue diagnosis that has been established following either a surgical resection or biopsy. This includes treatment-naïve—(chemotherapy and radiotherapy)—patients with prior diagnosis of a lower grade astrocytoma that has been upgraded to a histologically verified GBM. Patients must have WHO performance status≤2.
Eligible patients had newly diagnosed glioblastoma (WHO performance status≤2). […]

A short description of data set [2]: AVAglio Phase III trial, safety (adverse events). Further details: unit not given here. Format: in vivo, human.
Source text: as §1, §2, §3, §4, §5, §6
Patients≥18 years of age and with newly diagnosed supratentorial Glioblastoma (GBM) with a tissue diagnosis that has been established following either a surgical resection or biopsy. […] Patients must have WHO performance status≤2.
Eligible patients had newly diagnosed glioblastoma (WHO performance status≤2). After surgical resection, patients were randomized to concurrent therapy with temozolomide with radiation and placebo or temozolomide with radiation and bevacizumab followed by a 28 day treatment break, maintenance therapy with 10 mg/kg bevacizumab or placebo administered every two weeks in combination with temozolomide, and monotherapy with 15 mg/kg bevacizumab or placebo was administered every three weeks until disease progression or unacceptable toxicity. Patients in the placebo arm were treated at the investigators discretion at progression.

Take “bevacizumab + RT + T: Arm 2 of AVAglio: bevacizumab (recombinant humanized anti-VEGF monoclonal antibody) with temozolomide and radiotherapy”: the “Best ORR: Difference, % (95% CI)” value in data set [1] (Bv + T/RT versus P + T/RT, p =< 0.001) is 20.4 (13.9-26.8) %. The “Events, %” value in data set [1] (PFS events, percent of patients) was 77.3%. Also, the “HR (95% CI)” value in data set [1] (PFS hazard ratio, bevacizumab + RT + T versus placebo + RT + T, log-rank p < 0.0001) was 0.64 (0.55-0.74). In data set [1] (addition to first line temozolomide plus radiotherapy), the “effect on ORR (in words)” value is recorded as “significantly improves ORR”. For the same substance, the “Potential PsPD, %” value in data set [1] (end of treatment break) was 2.6%. The “PFS (months)” value in data set [1] (median progression-free survival, MacDonald Response Criteria, patients with newly diagnosed glioblastoma) was 10.6 months. Further, the “Best ORR: % (95% CI)” value in data set [1] (objective response rate) was 38.4 (33.5-43.5) %. In addition, in data set [1] (patients on steroids at baseline), the “patients on steroids at baseline able to discontinue steroids for part of their progression-free survival interval” value is 66%. Also, in data set [1] (post-2nd maintenance cycle), the “Confirmed PsPD, %” value is recorded as 2.2% and the “Rejected PsPD, %” value came to 0.2%. The “improvement in PFS (in words)” value in data set [1] (versus chemotherapy in combination with radiotherapy) was “statistically significant and clinically meaningful improvement in PFS”. In addition, in data set [2], the “Thromboembolic event Arterial (all grade)” value is 5 and the “Thromboembolic event Venous (Grade ≥3)” value is 7.3. Further, in data set [2] (adverse event), the “CHF (grade ≥3)” value was 0.4, the “Fistula/abscess (all grade)” value was 0.6, the “Hypertension (Grade ≥3)” value came out at 10.3 and the “PRES (Posterior reversible encephalopathy syndrome) (all grade)” value is reported as 0. Besides, the “Proteinuria (Grade ≥3)” value in data set [2] (adverse event) turned out to be 3.7. Besides, in data set [2] (adverse event, Grade ≥3), the “Bleeding (Grade ≥3) Cerebral Hemorrhage” value worked out at 1.5, the “Bleeding (Grade ≥3) Mucocutaneous bleeding” value is listed as 0.4 and the “Bleeding (Grade ≥3) Other” value stood at 0.6. In data set [2] (adverse event, all grade), the “Bleeding (all grade) Cerebral Hemorrhage” value is given as 2.6, the “Bleeding (all grade) Mucocutaneous bleeding” value is 26.7 and the “Bleeding (all grade) Other” value came to 11.6.

Values taken from patent publication US20200086139A1, “COMBINATION THERAPY FOR THE TREATMENT OF GLIOBLASTOMA” (Genentech, Inc., priority 2012, published 2020).
